1 substance from paper PMC10174534 can be followed below.

The target in the test is SARS-CoV-2 ΔN135 spike (S) protein, soluble prefusion-stabilised ectodomain trimer (SARS-CoV-2) (UniProt P0DTC2). Put plainly: SEC-MALS. (SEC sorts molecules by how far they enter the pores of the column.)

In general, stoichiometry N refers to the number of molecules, sites or subunits per partner or assembly. In turn, “SARS-CoV-2 ΔN135 spike (S) protein, soluble prefusion-stabilised ectodomain trimer (from UniProt P0DTC2 22-1208) (natural protein)” displayed a stoichiometry N of 3.
